Laboratory results taken from patent publication US20190112361A1 (Genentech, published 2019).
No end group written: not given here.

Tests used:
Oligomers = target: T1, Oligomers (In vitro oligomerised (arachidonic acid and heparin) homo-oligomer of one polypeptide; one copy of the chain is given. Biotin sits on the AVI-tag, which is left out.); assay: capture ELISA, antibody on anti-IgG plate, biotinylated oligomeric Tau titrated
T1 construct: also called oligoTau; oligomeric Tau; not shown: AVI-tag (site-specifically biotinylated) and any purification tag or linker of the construct
Experimental: For the oligoTau and monoTau capture ELISAs, antibodies contained in serum-free sterile hybridoma supernatants were immobilized on an anti-IgG coated plate at 500-fold dilution, followed by the incubation of oligoTau or monoTau, both with site-specific biotinylation via an AVI-tag. The target incubations started at 5 μg/mL and then were diluted 8- or 16-fold. Streptavidin-HRP and ABTS substrate was used for signal quantitation in a plate reader (Tecan, Switzerland). Results are expressed as O.D.

Tau fragment 28-42 = target: T2, Tau fragment 28-42 (human, UniProt P10636-8 28-42); assay: ELISA on Tau peptides (Example 8)
T2 construct: range 28-42
T2 peptide (looked up): GYTMHQDQEGDTDAG

Tau fragment 37-51 = target: T3, Tau fragment 37-51 (human, UniProt P10636-8 37-51); assay: ELISA on Tau peptides (Example 8)
T3 construct: range 37-51
T3 peptide (looked up): GDTDAGLKESPLQTP

Tau fragment 1-15 = target: T4, Tau fragment 1-15 (human, UniProt P10636-8 1-15); assay: ELISA on Tau peptides (Example 8)
T4 construct: range 1-15
T4 peptide (looked up): MAEPRQEFEVMEDHA

Tau fragment 19-33 = target: T5, Tau fragment 19-33 (human, UniProt P10636-8 19-33); assay: ELISA on Tau peptides (Example 8)
T5 construct: range 19-33
T5 peptide (looked up): GLGDRKDQGGYTMHQ

MAPT(2-34) = target: T6, MAPT(2-34) (human, biotinylated); assay: ELISA, biotinylated peptide on Neutravidin plate, IgG titrated
T6 construct: also called Tau fragment 2-34
T6 peptide: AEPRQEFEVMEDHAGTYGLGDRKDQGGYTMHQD
Experimental: (§1) Following a comparison of 37D3-H9 binding to biotinylated Tau monomer and biotinylated peptide (MAPT_10-24), binding of 37D3-H9 to additional biotinylated peptides was also assessed. Nunc maxisorp 96-well microplates were coated at 4° C. for >12 hours with Neutravidin diluted to 2 μg/ml in 50 mM Sodium Carbonate Buffer, pH 9.6. All subsequent incubations were performed at room temperature. After coating, plates were blocked with Superblock™ (PBS) Blocking Buffer (Thermo Fisher Scientific) for two hours then washed thoroughly with PBS, 0.05% Polysorbate 20. Wells were then exposed to biotinylated Tau peptides (Table 20) or Avi-tag biotinylated Tau monomer at 1 μg/ml for one hour and washed as previously. Peptides were synthesized using standard solid-phase Fmoc chemistry (see, e.g., Fmoc solid phase peptide synthesis: A practical approach; Chan, W. C., White, P. D., Eds.; Oxford University Press: New York, 2000). […] Wells were washed as previously and bound antibody detected with peroxidase-conjugated secondary antibody (Invitrogen/Life Technologies) diluted 1/1000 in Superblock™ Blocking Buffer (Rabbit anti-Mouse IgG or Goat Anti-Human IgG (H+L) respectively). […] Reactions were stopped by addition of 1M Phosphoric Acid and absorbance at 450 nm was measured with a SpectraMax M2 platereader.

MAPT(2-24) = target: T7, MAPT(2-24) (human, biotinylated); assay: as above
T7 construct: also called Tau fragment 2-24
T7 peptide: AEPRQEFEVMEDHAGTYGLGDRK
Experimental: as §1

[1] = target: T8, human Tau monomer (recombinant 2N4R isoform, amino acids 2-441) (human, UniProt P10636-8 2-441); assay: ELISA, Avi-tag biotinylated Tau monomer on Neutravidin plate, IgG titrated
T8 construct: range 2-441; also called monomeric human Tau; monomeric Tau
Experimental: as §1

MAPT(10-24) = target: T9, MAPT(10-24) (human, also: biotinylated); assay: ELISA on Tau peptides (Example 8)
T9 construct: also called Tau fragment 10-24
T9 peptide: VMEDHAGTYGLGDRK

B1: 26C1-C8 (antibody, V domains shown)
VH: EVHLQQSGAELVRSGASVKLSCTASGFNIKDYYMYWVKQRPEQGLEWIGWIDPENGDTEYFPKFQGKATMTADTSSKTAYLQLSSLTSEDTAVYYCNAWRARATNSALDYWGQGTSVTVSS
VL: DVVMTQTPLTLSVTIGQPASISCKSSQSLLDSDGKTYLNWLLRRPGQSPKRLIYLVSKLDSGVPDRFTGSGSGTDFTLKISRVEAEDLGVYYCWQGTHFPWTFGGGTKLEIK
notes: hybridoma supernatant
B1: binds (Oligomers).

B2: 94B2-C1 (antibody, mouse IgG2a, V domains shown)
VH: EVQLQQSGPELVKPGASMKISCKASGYSLTGYTMNWVKQSHGKNLEWIGLISPYNGVTSYNQKFKGKATLTVDKSSNTAYMELLSLTFEDSAVYYCARQGAYWGQGTLVTVSA
VL: not shown
B2: no binding (tested: not shown on the sheet) (Tau fragment 28-42); no binding (tested: not shown on the sheet) (Tau fragment 37-51).

B3: 19H6-F7 (antibody, mouse IgG2a, V domains shown)
VH: EVQLVESGGDLVKPGGSLKLSCAASGFTFSSYGMSWVRQTPDKRLEWVATISSGGTYTYYPDSVKGRFTISRDNAKNTLYLQMSSLKSEDTAMYYCAPSYDGAMDYWGQGTSVTVSS
VL: DVLMTQTPLSLPVSLGDQASISCRSSQSIVHSNGNTYLEWYLQKPGQSPKLLIYKVSNRFSGVPDRFSGSGSGTDFTLKISRVEAEDLGVYYCFQGSLVPWTFGGGTKLEIK
B3: no binding (tested: not shown on the sheet) (Tau fragment 28-42); no binding (tested: not shown on the sheet) (Tau fragment 37-51); no binding (tested: not shown on the sheet) (Tau fragment 1-15). B3: no binding (tested: not shown on the sheet) (Tau fragment 19-33).

B4: 19F8-B1 (antibody, V domains shown)
VH: EVQLQQSGPELVKPGASVKMSCKASGYTFTDYYMKWVKQSHGKSLEWIGDLNPNNGGTLYNQKFKGQATLTVDKSSSTAYMQFNSLTSEDSAVYYCARSAGYGDSFAYWGQGTLVTVSA
VL: DVLMTQTPLSLPVSLGDQASISCRSSQNIVHSNGNTYLEWYLQKPGQSPKLLIYKVSNRFSGVPDRFSGSGSGTDFTLKISRVEAEDLGIYFCFQGSHVPPTFGGGTKLEIK
notes: hybridoma supernatant
B4: binds (Oligomers).

B5: 11E10-B8 (antibody, mouse IgG2a, V domains shown)
VH: EVQLVESGGDLVKPGGSLKLSCAASGFTFRSYGMSWVRQTPDKRLEWVATISGGGSYTYYPDSVKGRFTISRDNAKNTLYLQMSSLKSEDTAMYYCAVSYDGAMDYWGQGTSVTVSS
VL: DVLMTQTPLSLPVSLGDQASISCRSSQSIVHSNGNTYLEWYLQKPGQSPKLLIYKVSNRFSGVPDRFSGSGSGTDFTLKISRVEAEDLGLYYCFQGSHVPWTFGGGTKLEIK
B5: binds (Oligomers).

B6: 37D3-H9 (antibody, mouse IgG2a, V domains shown)
VH: EVQLVESGGDLAKPGGSLKLSCTASGLIFRSYGMSWVRQTPDKRLEWVATINSGGTYTYYPDSVKGRFTISRDNAKNTLYLQMSSLKSEDTAMYYCANSYSGAMDYWGQGTSVTVSS
VL: DDLLTQTPLSLPVSLGDPASISCRSSQSIVHSNGNTYFEWYLQKPGQSPKLLIYKVSNRFSGVPDRFSGSGSGTDFTLKISRVEAEDLGVYYCFQGSLVPWTFGGGTKLEIK
notes: also called 37D3-H9 mIgG2a; 37D3-H9 IgG
With B6 the “EC50 (read off the curve)” value (MAPT(2-34)) was about 0.2 nM, the “EC50 (read off the curve)” value (MAPT(2-24)) was about 0.2 nM and the “EC50 (read off the curve)” value [1] was about 0.1 nM. B6: no binding (tested: not shown on the sheet) (Tau fragment 28-42); no binding (tested: not shown on the sheet) (Tau fragment 37-51); no binding (tested: not shown on the sheet) (Tau fragment 1-15). B6: no binding (tested: not shown on the sheet) (Tau fragment 19-33).

B7: 3A4-H4 (antibody, mouse IgG2a, V domains shown)
VH: EVQLVESGGDLVKPGGSLKLSCAASGFTFSSYGMSWVRQTPDKRLEWVATISSGGTYTYYPDSVKGRFTISRDNAKNTLYLQMSSLKSEDTAMYFCATSYDGAMDYWGQGTSVTVSS
VL: DVLMTQTPLSLPVSLGDQASISCRSSQNIVHSNGNTYLEWYLQKPGQSPKLLIYKVSNRFSGVPDRFSGSGSGTDFTLKISRVEAEDLGVYYCFQGTLVPWTFGGGTKLEIK
B7: no binding (tested: not shown on the sheet) (Tau fragment 28-42); no binding (tested: not shown on the sheet) (Tau fragment 37-51); no binding (tested: not shown on the sheet) (Tau fragment 1-15). B7: no binding (tested: not shown on the sheet) (Tau fragment 19-33); binds (MAPT(10-24)).

B8: 123E9-A1 (antibody, mouse IgG2a, V domains shown)
VH: EVQLQQSGPELVKPGASVKMSCKASGYTFTDYYMKWVKQSHGKSLEWIGDIDPNNGGTSYNQKFKGKATLTVDKSSSTAYMQLNSLTSEDSAVYYCARSAGFGDSFSFWGLGTLVTVSA
VL: DVLMTQTPLSLPVSLGDQASISCRSSQSIVHSNGNTYLEWYLQKPGQSPKLLIYKVSNRFSGVPDRFSGSGSGTDFTLKISRVEAEDLGFYYCFQGSHVPPTFGGGTKLEIK
B8: no binding (tested: not shown on the sheet) (Tau fragment 37-51); no binding (tested: not shown on the sheet) (Tau fragment 1-15); no binding (tested: not shown on the sheet) (MAPT(10-24)).

B9: 54C1-H11 (antibody, mouse IgG2a, V domains shown)
VH: EVQLVESGGDLVKPGGSLKVSCVASGFTFRSYGMSWVRQTPDKRLDWVATISSGGNYTYYPDSVKGRFTISRDNAKNTLYLQMSSLKSEDTAMYYCASSYSGAMDYWGQGTSVTVSS
VL: DTVMTQSPLSLPVSLGDQASISCRSSQSIVHSNGNTYLEWYLQKPGQSPKLLIYTVSNRFSGVPDRFSGSGSGTDFTLKISRVEAEDLGVYYCFQGSHVPWTFGGGTKLEIK
B9: no binding (tested: not shown on the sheet) (Tau fragment 28-42); no binding (tested: not shown on the sheet) (Tau fragment 37-51); no binding (tested: not shown on the sheet) (Tau fragment 1-15). B9: no binding (tested: not shown on the sheet) (Tau fragment 19-33).

B10: 89F4-A1 (antibody, mouse IgG2a, V domains shown)
VH: EVQLVESGGGLVQPKGSLKLSCAASGFTFNTYAMNWVRQAPGKGLEWVARIRSKSNNYAAYFADSVKDRFTISRDDSQTMLYLQMNNLKSEDTAMYYCVSGGNYVPFAYWGQGTLVTVSA
VL: NIMMTQSPSSLAVSAGEKVTMSCKSSQSVFYSSEQRNYLAWYQQKPGQSPKLLISWASTRESGVPDRFTGSGSGTDFTLTISSVQGEDLAVYYCHQYLSSFTFGSGTKLEIK
B10: no binding (tested: not shown on the sheet) (Tau fragment 1-15); no binding (tested: not shown on the sheet) (Tau fragment 19-33); no binding (tested: not shown on the sheet) (MAPT(10-24)).
